# Article PMC3774783
# Biological target: HCoV-OC43 N WT (Human coronavirus OC43, UniProt P33469 1-448)
# Assay: SPR
# Sequence of HCoV-OC43 N WT (P33469 whole entry): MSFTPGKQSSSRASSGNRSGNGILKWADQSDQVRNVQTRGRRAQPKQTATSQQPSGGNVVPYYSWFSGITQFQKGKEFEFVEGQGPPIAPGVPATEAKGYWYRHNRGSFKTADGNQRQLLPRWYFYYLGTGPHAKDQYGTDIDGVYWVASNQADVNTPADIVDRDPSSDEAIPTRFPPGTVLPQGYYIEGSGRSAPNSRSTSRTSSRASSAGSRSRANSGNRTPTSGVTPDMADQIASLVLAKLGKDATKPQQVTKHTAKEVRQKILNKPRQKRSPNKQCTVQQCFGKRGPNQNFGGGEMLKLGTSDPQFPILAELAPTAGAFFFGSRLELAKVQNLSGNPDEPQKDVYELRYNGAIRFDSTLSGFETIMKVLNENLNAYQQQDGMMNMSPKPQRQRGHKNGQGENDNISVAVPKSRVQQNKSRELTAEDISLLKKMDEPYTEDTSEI
binder,measurement,value
UCUAAACUCUAAACUCUAAACUCUAAAC (ssRNA) [(UCUAAAC)4 28-mer],Kd,11.7 ± 0.82 nM
